molecular target: acetylcholine receptor (Homo sapiens, UniProt P02708); test: SPR binding affinity (RU) of optimized 5mer/6mer/7mer peptides, Examples 6-7; details: 6mer-1 Top sequence; SPR; peptides tested at 10 μM
Procedure: Based on the frequencies of occurrence of the top 7 amino acids from Table 7 in Example 5, 600 peptides comprising these amino acids (top combinations) and those comprising the 13 less frequently occurring amino acids (bottom combinations) were synthesized for each series of 5mer, 6mer-1, and 6mer-2. The binding affinity of each sequence for the acetylcholine receptor was measured using Surface Plasmon Resonance (SPR) analysis method. The peptides were tested at a concentration of 10 μM. Additionally, the average binding affinities of the top and bottom combinations in each series are depicted in FIGS. 5-7.
Representative peptides identified in Example 6, two in each library, including 5mers (73, 311) and 6mers-1 (43, 210) and 6mers-2 (136, 233), were compared with the pre-optimized 6mer, 5mer-ND, and Synake.

Sequence of acetylcholine receptor (P02708 21-457): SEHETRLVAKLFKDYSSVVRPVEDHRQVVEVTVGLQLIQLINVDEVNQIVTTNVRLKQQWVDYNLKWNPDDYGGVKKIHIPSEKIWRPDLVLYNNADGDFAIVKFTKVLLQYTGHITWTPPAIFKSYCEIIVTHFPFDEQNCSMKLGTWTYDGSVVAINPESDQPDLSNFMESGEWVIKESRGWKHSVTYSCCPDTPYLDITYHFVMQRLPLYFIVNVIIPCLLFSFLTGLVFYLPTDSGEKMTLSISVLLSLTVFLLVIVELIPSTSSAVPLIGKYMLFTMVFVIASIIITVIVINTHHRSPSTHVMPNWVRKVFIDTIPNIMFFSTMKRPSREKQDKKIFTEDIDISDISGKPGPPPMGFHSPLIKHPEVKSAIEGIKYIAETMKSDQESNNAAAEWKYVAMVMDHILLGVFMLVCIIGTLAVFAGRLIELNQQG

Substance	Binding affinity [Ru]
6mer-1-388 (RRLLQR)	142
6mer-1-342 (RKRFCR)	131
6mer-1-227 (KRLVQK)	139
6mer-1-296 (RKSIRR)	121
6mer-1-256 (KRVRTK)	125
6mer-1-279 (RRLRYR)	145
6mer-1-317 (KRSFRR)	148
6mer-1-379 (KRRISK)	153
6mer-1-399 (KRWILR)	125
6mer-1-257 (RKWVTR)	124

same assay, conditions: 6mer-2 Top sequence; SPR; peptides tested at 10 μM

Substance	Binding affinity [Ru]
6mer-2-9 (KLICRK)	139
6mer-2-72 (KRIQKK)	144
6mer-2-141 (KWYQKK)	154
6mer-2-75 (KLYTRK)	133
6mer-2-178 (KWLLRR)	133
6mer-2-115 (KWQYRK)	144
6mer-2-127 (RLYLRK)	136
6mer-2-70 (KRLLRK)	126
6mer-2-102 (KVYQKK)	139
6mer-2-195 (KSRQKR)	154
6mer-2-101 (RLICRK)	154
6mer-2-111 (KLIRRK)	123

same assay, conditions: SPR, Resonance Units; 5mer Bottom sequence (bottom combinations); peptides tested at 10 μM

Substance	Binding affinity [Ru]
5mer-645 (RHKDK)	20
5mer-947 (KDWIR)	27
5mer-811 (KMTMR)	32
5mer-1093 (REEDK)	32
5mer-946 (KYPWR)	32
5mer-1086 (RIWDR)	19
5mer-652 (RCAAR)	23
5mer-663 (RATPR)	31
5mer-961 (KIANR)	32
5mer-705 (RHAKK)	15
5mer-948 (KDSFK)	18
5mer-757 (KYCMR)	17
5mer-703 (KPNWR)	22
5mer-1106 (RYTER)	18
5mer-727 (KMDAR)	31
5mer-807 (RKNKK)	20
5mer-624 (KEHER)	22
5mer-1015 (RCWMK)	30
5mer-750 (KEADK)	13

same assay, conditions: SPR, Resonance Units; peptides tested at 10 μM; 6mer-1 Bottom sequence

Substance	Binding affinity [Ru]
6mer-1-1089 (RKFTKK)	31
6mer-1-1082 (KKTCDR)	37
6mer-1-1102 (KRFTKK)	35
6mer-1-1139 (KKMENR)	36

same assay, conditions: SPR, Resonance Units; peptides tested at 10 μM; 6mer-1 Bottom sequence (Table 11)

Substance	Binding affinity [Ru]
6mer-1-789 (KRMMPK)	19
6mer-1-608 (KKACMR)	18
6mer-1-717 (KRHEDR)	22
6mer-1-663 (KKFKDR)	26
6mer-1-680 (KKDPPR)	27
6mer-1-743 (KKTMVR)	14
6mer-1-735 (RKDKER)	19

same assay, conditions: SPR, Resonance Units; peptides tested at 10 μM; 6mer-2 Bottom sequence

Substance	Binding affinity [Ru]
6mer-2-929 (KNHMRK)	26
6mer-2-756 (KPTNRK)	26
6mer-2-972 (KAMFRR)	38
6mer-2-909 (RCNPRR)	42
6mer-2-867 (KYWEKK)	32
6mer-2-839 (KNHNRR)	32
6mer-2-961 (KNTKKR)	21
6mer-2-780 (KITIRK)	31
6mer-2-757 (RIPNKR)	19
6mer-2-678 (KEWWRR)	32
6mer-2-603 (KFHARR)	32
6mer-2-601 (KNSHKK)	25
6mer-2-993 (RHDVKK)	29
6mer-2-654 (RMPEKR)	20
6mer-2-856 (KEPMRR)	14
6mer-2-632 (KYDIKR)	12

same assay, conditions: SPR, Resonance Units; peptides tested at 10 μM; 6mer-2 Top sequence

Substance	Binding affinity [Ru]
6mer-2-441 (KSQRKR)	139
6mer-2-566 (KRLSKK)	139
6mer-2-592 (RWVLRK)	122
6mer-2-466 (RLLTRR)	142
6mer-2-553 (RSLQKK)	124

same assay, conditions: SPR, Resonance Units; peptides tested at 10 μM; 6mer-2 Top sequence (Table 12)

Substance	Binding affinity [Ru]
6mer-2-287 (RLYLKR)	124
6mer-2-399 (RWLTRR)	148
6mer-2-330 (KQLRKK)	139
6mer-2-300 (RWRLKK)	153
6mer-2-264 (KSQLKR)	127
6mer-2-389 (KSLYKK)	153
6mer-2-222 (RVVYRK)	127
6mer-2-223 (KQLTRR)	142
6mer-2-340 (RRLTRR)	122
6mer-2-270 (KSRLRR)	148

same assay, conditions: SPR, peptides at 10 μM; 6mer-2 Bottom sequence

Substance	Binding affinity [Ru]
6mer-2-1132 (RPWERR)	32
6mer-2-1199 (RCTNKR)	27
6mer-2-1110 (RMTKKK)	37
6mer-2-1006 (RATMRR)	30
6mer-2-1157 (RNTDRK)	37
6mer-2-1160 (RITVKK)	23
6mer-2-1027 (KTPVKK)	32
6mer-2-1150 (KTDVKK)	42

same assay, conditions: SPR, peptides tested at 10 μM; 5mer Top sequence

Substance	Binding affinity [Ru]
5mer-494 (RGFCK)	54
5mer-108 (KWQLK)	77
5mer-12 (RVFLR)	70
5mer-159 (RGQRR)	73
5mer-360 (RQLCK)	66
5mer-118 (RVICK)	87
5mer-194 (KWQSK)	84
5mer-173 (RSVSR)	59
5mer-391 (KVFRR)	72
5mer-347 (KRICR)	78
5mer-452 (RGVSK)	82
5mer-346 (KGISK)	57
5mer-499 (RVLTK)	76
5mer-324 (KSQRR)	58
5mer-166 (KSFQR)	55
5mer-142 (RQYSR)	52
5mer-144 (KRFSK)	58
5mer-51 (RSLQR)	70
5mer-148 (RSQTK)	50

same assay, conditions: SPR, peptides tested at 10 μM; 5mer Top sequence (top combinations)

Substance	Binding affinity [Ru]
5mer-245 (RQRSK)	62
5mer-286 (RWFQK)	71

same assay, conditions: SPR, peptides tested at 10 μM; 6mer-1 Bottom sequence (Table 11)

Substance	Binding affinity [Ru]
6mer-1-806 (RKKTIR)	12
6mer-1-869 (KRKDER)	22
6mer-1-854 (KKEAVR)	16
6mer-1-970 (RRCCAR)	38
6mer-1-893 (RRIPHR)	22
6mer-1-983 (KRPHKK)	38
6mer-1-976 (RKEMIK)	40
6mer-1-834 (KRNTIR)	17

same assay, conditions: SPR, peptides tested at 10 μM; 6mer-1 Top sequence

Substance	Binding affinity [Ru]
6mer-1-471 (KKWRCK)	123
6mer-1-538 (RRSQCK)	142
6mer-1-526 (KRGYTR)	148
6mer-1-439 (KRRQTK)	121
6mer-1-428 (KRVVLR)	139
6mer-1-584 (RKQVSK)	127
6mer-1-580 (KKSLQK)	121
6mer-1-421 (RKVLYR)	135

same assay, conditions: SPR, peptides tested at 10 μM; 6mer-1 Top sequence (top combinations)

Substance	Binding affinity [Ru]
6mer-1-166 (RRWYSK)	148
6mer-1-29 (KRLISR)	124
6mer-1-174 (KKGVCR)	154
6mer-1-171 (RKQFQK)	123
6mer-1-181 (KKGVLR)	148
6mer-1-7 (KRQYSK)	126
6mer-1-159 (KRLRRK)	139

same assay, conditions: SPR; XRRGVRR-7mer and RRGVRRX-7mer

Substance	Binding affinity, values relative to the RRGVRR sequence
3643 (VRRGVRR) [compound 3643]	140
3662 (RRGVRRA) [compound 3662]	118
3641 (GRRGVRR) [compound 3641]	137

same assay, conditions: SPR; XRRQRR-6mer and RRQRRX-6mer

Substance	Binding affinity, relative value to the RRQRR sequence
3613 (YRRQRR) [compound 3613]	130

same assay, conditions: SPR; peptides tested at 10 μM; 5mer Bottom sequence

Substance	Binding affinity [Ru]
5mer-869 (KKHPK)	31
5mer-1174 (KYSGK)	25
5mer-1113 (RHMER)	19
5mer-859 (KHNAR)	26
5mer-1142 (KTENK)	24
